Values quoted from earlier work in patent US8450118B2, “Method for detecting binding interactions between membrane proteins and analytes in a homogenous assay” (Molecular Sensing, Inc., priority 2009, dated 2013).

Target: T1, mouse B1 receptor (Mus musculus, UniProt Q61125)
T1 sequence (Q61125 1-334): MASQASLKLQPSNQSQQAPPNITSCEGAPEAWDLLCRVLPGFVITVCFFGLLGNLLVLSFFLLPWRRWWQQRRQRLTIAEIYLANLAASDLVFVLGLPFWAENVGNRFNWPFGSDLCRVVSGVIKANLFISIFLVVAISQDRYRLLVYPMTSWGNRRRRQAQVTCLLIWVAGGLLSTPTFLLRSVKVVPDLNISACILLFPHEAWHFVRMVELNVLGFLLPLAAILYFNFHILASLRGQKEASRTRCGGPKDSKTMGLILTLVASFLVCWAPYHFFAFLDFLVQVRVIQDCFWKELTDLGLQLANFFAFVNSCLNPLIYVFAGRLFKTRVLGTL

Substance: BK(1-8): peptide generated by removal of the C-terminal arginine of bradykinin by carboxypeptidases; selective ligand at the B1 receptor (RPPGFSPF; Bradykinin; UniProt P01042 381-388, looked up, fragment)
- fold higher affinity for BK(1-8) compared to Lys-BK(1-8): 2-3 fold
